assay: soluble on expression in E. coli; label from the status in PepcDB or PDB records

Sequence | soluble on expression in E. coli
LAIPEKRLSNNIILTKLKIALNLQAEQIISLLESVDFRISKPELSAFSRKVDHQHYRECKDQVLRNLLHAIDKTYHV | not soluble
MTTEQEFEKVELTADGGVIKTILKKGDEGEENIPKKGNEVTVHYVGKLESTGKVFDSSFDRNVPFKFHLEQGEVIKGWDICVSSMRKNEKCLVRIESMYGYGDEGCGESIPGNSVLLFEIELLSFRELE | soluble
MSVLAVQAQRTSIGITAGTGTAWLSDTDRDVVFNPVWNAGATLVYSSETHWGFGADIKYSREGVKFTYAGTGNYNGQTMTTRVGSDFIRIPLRAIYFFNKNENAFRPNVSLGPSFGILTGGEIKTYDGDKNVIGTSKVSDSFRDVDFGLQGTAGASIMLSDGLWFSADIVYYQGLNKQNKNGTNTMLNSNVGINLGLRIGVGR | not soluble
MGSDKIHHHHHHMTSRSPFESFVWQSEIFNCQSNDIDAFYAQLAEEVNRLGLKKNTLGSVDSFAINLYQSASQRSDLPSLLISSGFHGEEAAGPWGMLHFLRGLQPALFERVNLSLLPLVNPTGFKAGHRFNRFGENPNRGFTLENGKPTPNEHTSLEGKLLLEHAQLLCAASRDGILTCHEDVLMNETYVYSFEPTQTPGRFSLGLRDALGQYFKLAKDGFIDECPVTDGVIFNHFDTSFEAFLVRSGAKLAACSETPGQEDFDRRVQANSAAMGQFIAHCAPIL | not soluble
MFGNYISTSPEKIIMLALRIMQGIAKTLAEHVLDLKHSPLSKQAMKRQTLRLWAEYSLGTINKIIDMKSGPSNQSAEEMEFIRRLILIRRDIHSQLHSVGIDINDGTGD | not soluble
MCFRTENGDFFGWEGVENTVGCGAGTCTHVWNYAQTVAFLFPELEQSMRRIEFLQETQADGYMPFRTYRPFGLPAWEMLPSADGQLGAVVRLYREWRLSGDNRLIEDCWDGVVRSMEYAIRTWDTDGDFVPDSAQHVTYDTELYGMTSMVSTLFFAALIAAAEMAEYMGDQERARRYRDGAEKGAKLMDEKCWNGEYYIQLIDDVDKYRYQYGKGCLSDQLLGQFLAQEAGLGYVLPKNHVKKAAESIFRYNFIERASDFGHVQRAYIFNDEMGLTPCTWPLGERPRFPFIYFGEVWTGIEYEVAALLIREDLLEEGLTIVKAVRDRQDGYRRNPWSENESGYYYTRAMASYSILNALSGFSCDQRKNQMSFQPKLNQDNFRCFWCNGKSWGIFSQKKEKGEIRQELQVLYGEKDVSVINLEHHHHHH | not soluble
MGSDKIHHHHHHGFESDNANKAGYTPELQEYDLQKYVLNLGVMQQGIYFNYDWGRGTDWTFQTIQNLGHDMFAGYFHDMNNSFNDKNSVYALNDGWTGSAWTYTYGYIMTAAQKSEKINQEQKGLLGVTKILKVELMHRIADTYGPIVYTKFGQEEGDNVDSQEAAYRQFFKDLDEGVKLINEYKKDNAALEPFAAADILMPAGKRTLSQWVKFANSLRLRLAIRVSMSAPDLARAEVAKAMDATAGGVLESADETVAVSTESGYKNPLGTVNEGWGEVFMGATMESVLVGYNDPRLIKYYSKAEGGDIKDEKGNLIIAERNKIAGTYKGVPQGTGVTVKDENRYRLHSKSTITKQTDAILMTAAEVWFLRAEAALRGFTSENVKDCYEKGITVSCQQWGVNVGDYLTSDATPSDYVDAFEAKYDVKALIKVTPKWDGGASPEEQLERILTQKWIACYPEGYEAWTEQRRTGYPQLFKVFVNNSGGAIDTNIRIRRLPYPSDIQKNNPTQYSALKKALGGEDNGGTRLWWDTGRNF | not soluble
MGSDKIHHHHHHMKIAFDVDVIKHLPITQMVRQVSEWGYKYIEQSPHPRINPFYKHPKAGRDTMQEYKRALQNYGVEISSFIVVYRWSGPDEERRRAAVTNWKRMIEIAVDMGVQVINTELSGTPDEPEICEEMWYRSMEELLPIVEREGIRIEIQSHPWDFCELNDETVDMVQSLRSDNVTYLYSAPHGFFYDKGQGDVARMLNYAGADLSHVLLADTHNHTLPCRYIMNPPGVNATIHQHIGLGEGEVDFDALFQALREMDFANRTFKVGGEAIITTSLFGYPEKMSVQAVETRERIERELLGR | not soluble
MSLSAFFAHLHLHSEFSLQDGLIRVKPLMQAVAQAGMPAVALTDQGNLFGAVKFYRAAVNAGVKPIIGAEIRVADADASERPARLVLLCADTQGYRTLTRLLTRGYLEGQQQGVPVVDREWLRGRCAGLIGLSGGRVGDVGRALLSGEPALAARKLEFWREQFGDRYYLELQRTGRPGDEEHVQAAVELATAHGVAVVATNDVCFLRPEDEGHHHHHH | not soluble
MSLTEYVHGYSEREALRLSEQAETLEKLLHHDTVYPPGAKVLEAGCGIGAQTVILAKNNPDAEITSIDISPESLEKARENTEKNGIKNVKFLQANIFSLPFEDSSFDHIFVCFVLEHLQSPEEALKSLKKVLKPGGTITVIEGDHGSCYFHPEGKKAIEAWNCLIRVQAYMKGNSLVGRQIYPLLQESGFEKIRVEPRMVYIDSSKPELVDGFILKTIIPMVEGVKEQSLKMQIIKEEEWEKGIEELHKTAEHGGTFCYTFFKGWGTKEGHHHHHH | soluble
MTKRNTPQRRHNILALLNEQGEVSVDDLARRFETSEVTIRKDLAALETNGLLLRRYGGAIPLPHELISESSQPVSRYKKAIARAAVSRIREHARIIVDSGSTTAALIPELGQQPGLVVMTNSLHVARALTDLEHEPVLLMTGGTWDPHSESFQGQVAEQVLRSYDFDQLFIGADGIDLIRGTTTFNELLGLSRVMAEVAREVVVMVEADKVGRKIPNLELPWSSIHTLITDDRLPVEARDQIQARGINLICAAVSLEHHHHHH | not soluble
MSLNSATHLAAHEGSARRRQALGEFVRTARARITPQMAGLPAGSRRRTPGLRREEVAQLSDISVTWYTWIEQGREVTVSPAVWARIANVLHLARAERAYLFELAECADPQQPRDEGGDAPVSLQACVDAIDAPAYALDRAWNLLASNAAMRELFDDWPLRDAQPNLLRYIFLDPAARELVVDWDQRARRVVAEFRADAGAHLDEADVVALLDELNRASPVFAHWWTRHAVVEREGGLREFQHPRSGRQNLQQITFRLATHPELKLVMLLPSEGHHHHHH | soluble
MKIAVAGSGYVGLSLGVLLSLQNEVTIVDILPSKVDKINNGLSPIQDEYIEYYLKSKQLSIKATLDSKAAYKEAELVIIATPTNYNSRINYFDTQHVETVIKEVLSVNSHATLIIKSTIPIGFITEMRQKFQTDRIIFSPEFLRESKALYDNLYPSRIIVSCEENDSPKVKADAEKFALLLKSAAKKNNVPVLIMGASEAEAVKLFANTYLALRVAYFNELDTYAESRKLNSHMIIQGISYDDRIGMHYNNPSFGYGGYCLPKDTKQLLANYNNIPQTLIEAIVSSNNVRKSYIAKQIINVLKEQESPVKVVGVYRLIMKSNSDNFRESAIKDVIDILKSKDIKIIIYEPMLNKLESEDQSVLVNDLENFKKQANIIVTNRYDNELQDVKNKVYSRDIFGRD | soluble
MIKIPRGTQDILPEDSKKWRYIENQLDELMTFYNYKEIRTPIFESTDLFARGVGDSTDVVQKEMYTFKDKGDRSITLRPEGTAAVVRSYIEHKMQGNPNQPIKLYYNGPMFRYERKQKGRYRQFNQFGVEAIGAENPSVDAEVLAMVMHIYQSFGLKHLKLVINSVGDMASRKEYNEALVKHFEPVIHEFCSDCQSRLHTDPMRILDCKVDRDKEAIKTAPRITDFLNEESKAYYEQVKAYLDDLGIPYTEDPNLVRGLDYYTHTAFELMMDNPNYDGAITTLCGGGRYNGLLELLDGPSETGIGFALSIERLLLALEEEGIELDIEENLDLFIVTMGDQADRYAVKLLNHLRHNGIKADKDYLQRKIKGQMKQADRLGAKFTIVIGDQELENNKIDVKNMTTGESETIELDALVEYFKK | soluble
MRYLSNLLCLTLTFIVCFGAERDADEEAYVLMNLLKQSIDMDQTEALPGFVSRDFTYDTCKGIWNRDKYMEYLKVFSSRPDGGMQPMSTDWKVTNAHFNDNTLYFNIHNYNQHLAIYPDLEFEAKKIGKDERYILTRGKISKCGTLEKEY | not soluble
MNNQYLQFVREQLIIATADLSGATKGQLEAWQENAMFDTGRYRRKKIRYRDEVTGKMITRDNPPIPGKQSLAKGTSIPLVSPVEFSTSSWRRAVLSLEEHYKAWLLWCYSGSICWEYQIAITQWAWNEFNAQSGTRKIAGKTQERLKKLIWLAAQAVKAELFGGEGYEYQELALLAGVTTKNWSKTFTRHWVAMKHIFHRLDSEALLFVMRTRSKKRRHFQSKVLQK | not soluble
MGSDKIHHHHHHMKNTVAFKTITGRDAVYKAYDAFLGNMGIPHEEVNVDTRFGKAFVIAAGKKDAPVLVLLHGSGINSVMWIKDMEKYSEHYRVYAVDLQGEPGKSDGKQLSFEGSDFDNWLHDVFAGLSVEKASIAGISLGAWLALKFAIANPQMVDKLVLLCPAGVGPQKTSFAYVSLFHMLLWGEKGVERLFRKVNGGKPIPQEIMDYQKLLGNNFNFRREQVPLFSDAELTQLTIPSILFVGQKDVMFHSLKTAQRYRNLVPDAKVIVLREAGHTLIGLVDDILEFLQN | not soluble
MSLKAVFVYEPLGNENVKVEEVSEPKKEQGKVIIEVKKAGLNPIDYNVINGKIVYRLNPLPHIPGSEVYGIVKEDSGSFKKGERVIVYNRIFDGTCSQCISGNEHLCENGGIWGVVSNGGYSQLVQIDEKNVFRVPEDASDELAASIGVAALTSFRAIRISGCSPGRSILIYGASGNTGMFAVQLASMMGCDVYAVSRKDWIESFGAIEVFRPDNIPPDMKFDIIINPLGSLFWGDALKHLRTRGILVSFGVLTGREGSIDIADLYTGEKKILGSTGGTREDLRGLLEFMKTHELRVKIAREFKINEIKDALKYYSETHDGRILISMREGHHHHHH | not soluble
MEKETLFIAFSTQKGGAGKTTLTVLVASYLHYVKGMNVAVVDCDYPQHSIAEMRKRDLKTVMEDEHYKLMAYRQLQRIRKKAYPVAESTAEDAVTKADELLEKMPETDIVFFDLPGTVNSTGVLNTLVNMDYVFSPIAADRVVMESTLRFASRLNDTLIATGKTNIKGLYLLWNMVDGREKSELYKVYEQVIGELGLKVLKTFLPDSKRFRRELTGGHRALFRSTLFPADGTLVKGSNLKEITEELLSIIRK | not soluble
MMTSAFAPSEQSLVASPQDLPAVDVAIVGAGIVGLSLACALRNSGLAIALIEATPYRRENTKGQAYALHQVSRYFFEEIGVWDKLMPHVQPFEVVQLSDERFPLTVHFSPADLGTEALGYVGEHSAIAETLQSVLQSAGNVTFYCPWRVVTNEVHGDRAQLTLISGDPGEPKVAHLAARLVVAADGGKSPLRQQMGIEPKGWQYPQSCVVATLDVAHPQPVIAYERFWPTGPMGVLPLPRNRYRVVWTLPHPEAEAVAALDDRSFLATLQPYLDPQMAEITAVGDRFVFPAQFMQVNSYAADRFVVIGDAAHRCHPVGGQGLNLGLRDVWNLAQQILASPLEEIGDRRHLMHFHRQRWWQNVLTLAFTDFLNRLFSNTGWPLVAVRRCGLGLLCLLPPLKRLLLRFMAGLLLPLPGDREFPRGRLEHHHHHH | not soluble
MGSDKIHHHHHHMTSEKGIIFNIQHFSIHDGPGIRTTVFLKGCPLRCPWCSNPESQKYKPEQMLDAETKLPMIIGEEKTVEDIISEVKKDIDFYEESGGGLTLSGGEIFAQFEFAKAILKCAKEEGLHTAIETTAFAEHEKFTDLIQYVDFIYTDLKHYNTIRHRKVTGVNNNFIIQNIHYAFTHKKTIVLRIPVIPDFNNSLDDAEHFAKLFNDIQVDKVQLLPFHQFGENKYKFLNRKYEMSGYTALHPEDLYDYQSVFLEHGIDCYF | not soluble

From the DeepSol protein solubility set
